Target: T1, VLP2 (virus-like particles of AAV2) (AAV2, UniProt P03135 1-735; P03135 1-598; P03135 1-533)
T1 construct: Empty AAV2 capsid; background says about 60 protein molecules, VP1:VP2:VP3 = 1:1:10; Immobilised on the ELISA plate
Assay: ELISA on VLP2; binding after 43°C 15 min / untreated

T1 sequence (P03135 whole entry, chain 1 of 3): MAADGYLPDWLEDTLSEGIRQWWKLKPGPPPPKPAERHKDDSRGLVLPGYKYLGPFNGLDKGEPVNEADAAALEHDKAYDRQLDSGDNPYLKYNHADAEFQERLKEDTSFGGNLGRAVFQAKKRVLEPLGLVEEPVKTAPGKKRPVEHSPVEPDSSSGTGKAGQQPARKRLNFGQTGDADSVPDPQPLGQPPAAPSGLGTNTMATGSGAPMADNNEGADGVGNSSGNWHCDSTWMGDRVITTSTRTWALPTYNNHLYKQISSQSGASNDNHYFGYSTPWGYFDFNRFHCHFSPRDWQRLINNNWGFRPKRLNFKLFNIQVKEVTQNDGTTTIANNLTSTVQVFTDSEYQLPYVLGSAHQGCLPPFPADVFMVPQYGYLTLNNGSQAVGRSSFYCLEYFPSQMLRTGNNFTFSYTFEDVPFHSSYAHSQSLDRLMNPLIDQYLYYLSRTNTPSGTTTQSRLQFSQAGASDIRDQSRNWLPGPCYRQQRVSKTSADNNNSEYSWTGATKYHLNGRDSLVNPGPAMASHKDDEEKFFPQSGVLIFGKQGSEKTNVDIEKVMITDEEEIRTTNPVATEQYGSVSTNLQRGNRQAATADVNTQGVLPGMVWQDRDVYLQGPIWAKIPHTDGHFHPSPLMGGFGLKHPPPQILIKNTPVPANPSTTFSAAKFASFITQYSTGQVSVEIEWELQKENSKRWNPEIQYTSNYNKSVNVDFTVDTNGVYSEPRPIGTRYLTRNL
T1 sequence (P03135 139-735, tags left off, chain 2 of 3): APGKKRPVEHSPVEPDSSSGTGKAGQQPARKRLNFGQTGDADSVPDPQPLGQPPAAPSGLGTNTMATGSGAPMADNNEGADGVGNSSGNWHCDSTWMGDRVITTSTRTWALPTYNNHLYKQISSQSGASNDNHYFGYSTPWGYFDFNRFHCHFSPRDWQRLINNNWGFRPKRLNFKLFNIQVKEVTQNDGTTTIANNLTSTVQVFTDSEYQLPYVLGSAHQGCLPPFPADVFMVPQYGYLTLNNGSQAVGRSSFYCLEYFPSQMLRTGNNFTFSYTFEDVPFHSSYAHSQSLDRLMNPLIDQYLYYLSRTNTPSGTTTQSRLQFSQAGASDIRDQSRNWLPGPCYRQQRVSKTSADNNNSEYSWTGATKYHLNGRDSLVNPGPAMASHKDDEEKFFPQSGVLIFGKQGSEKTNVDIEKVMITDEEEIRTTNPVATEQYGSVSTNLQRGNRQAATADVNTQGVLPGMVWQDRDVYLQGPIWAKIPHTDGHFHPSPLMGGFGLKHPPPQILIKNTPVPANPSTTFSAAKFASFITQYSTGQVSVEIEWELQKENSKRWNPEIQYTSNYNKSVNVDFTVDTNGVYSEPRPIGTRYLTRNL
T1 sequence (P03135 203-735, chain 3 of 3): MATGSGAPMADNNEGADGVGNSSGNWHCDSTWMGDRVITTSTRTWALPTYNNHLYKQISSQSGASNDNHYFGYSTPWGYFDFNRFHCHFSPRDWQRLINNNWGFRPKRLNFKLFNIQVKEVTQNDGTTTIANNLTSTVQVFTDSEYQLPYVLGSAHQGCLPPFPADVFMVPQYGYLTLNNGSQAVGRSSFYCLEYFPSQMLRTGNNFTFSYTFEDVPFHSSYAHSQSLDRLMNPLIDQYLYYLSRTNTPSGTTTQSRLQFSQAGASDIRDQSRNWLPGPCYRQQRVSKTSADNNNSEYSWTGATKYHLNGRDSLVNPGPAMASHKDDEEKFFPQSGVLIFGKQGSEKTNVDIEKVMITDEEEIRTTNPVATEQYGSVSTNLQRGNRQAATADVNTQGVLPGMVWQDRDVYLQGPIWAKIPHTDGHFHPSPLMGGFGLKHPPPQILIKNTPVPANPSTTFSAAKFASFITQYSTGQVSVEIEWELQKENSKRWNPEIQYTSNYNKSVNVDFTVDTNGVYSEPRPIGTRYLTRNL

Binder | Residual activity [%]
AAV-binding protein No. 1 (Asn324Asp) (receptor) MGSAGESVQITLPKDEVQLNAYVLQEPPKGETYTYDWQLITHPRDYSGEMEGKHSQILKLSKLTPGLYEFKVIVEGQNAHGEGYVNVTVKPEPRKNRPPIAIVSPQFQEISLPTTSTVIDGSQSTDDDKIVQYHWEELKGPLREEKISEDTAILKLSKLVPGNYTFSLTVVDSDGATNSTTANLTVNKAVDHHHHHH | 46
AAV-binding protein No. 17 (Phe379Ser) (receptor) MGSAGESVQITLPKNEVQLNAYVLQEPPKGETYTYDWQLITHPRDYSGEMEGKHSQILKLSKLTPGLYESKVIVEGQNAHGEGYVNVTVKPEPRKNRPPIAIVSPQFQEISLPTTSTVIDGSQSTDDDKIVQYHWEELKGPLREEKISEDTAILKLSKLVPGNYTFSLTVVDSDGATNSTTANLTVNKAVDHHHHHH | 80.9
AAV-binding protein No. 4 (Tyr344His) (receptor) MGSAGESVQITLPKNEVQLNAYVLQEPPKGETYTHDWQLITHPRDYSGEMEGKHSQILKLSKLTPGLYEFKVIVEGQNAHGEGYVNVTVKPEPRKNRPPIAIVSPQFQEISLPTTSTVIDGSQSTDDDKIVQYHWEELKGPLREEKISEDTAILKLSKLVPGNYTFSLTVVDSDGATNSTTANLTVNKAVDHHHHHH | 88.2
AAV-binding protein No. 19 (Val396Ala) (receptor) MGSAGESVQITLPKNEVQLNAYVLQEPPKGETYTYDWQLITHPRDYSGEMEGKHSQILKLSKLTPGLYEFKVIVEGQNAHGEGYVNATVKPEPRKNRPPIAIVSPQFQEISLPTTSTVIDGSQSTDDDKIVQYHWEELKGPLREEKISEDTAILKLSKLVPGNYTFSLTVVDSDGATNSTTANLTVNKAVDHHHHHH | 62.3
AAV-binding protein No. 10 (Arg353Cys) (receptor) MGSAGESVQITLPKNEVQLNAYVLQEPPKGETYTYDWQLITHPCDYSGEMEGKHSQILKLSKLTPGLYEFKVIVEGQNAHGEGYVNVTVKPEPRKNRPPIAIVSPQFQEISLPTTSTVIDGSQSTDDDKIVQYHWEELKGPLREEKISEDTAILKLSKLVPGNYTFSLTVVDSDGATNSTTANLTVNKAVDHHHHHH | 84.3
AAV-binding protein No. 13 (Gly357Cys) (receptor) MGSAGESVQITLPKNEVQLNAYVLQEPPKGETYTYDWQLITHPRDYSCEMEGKHSQILKLSKLTPGLYEFKVIVEGQNAHGEGYVNVTVKPEPRKNRPPIAIVSPQFQEISLPTTSTVIDGSQSTDDDKIVQYHWEELKGPLREEKISEDTAILKLSKLVPGNYTFSLTVVDSDGATNSTTANLTVNKAVDHHHHHH | 97
AAV-binding protein No. 12 (Ser356Cys) (receptor) MGSAGESVQITLPKNEVQLNAYVLQEPPKGETYTYDWQLITHPRDYCGEMEGKHSQILKLSKLTPGLYEFKVIVEGQNAHGEGYVNVTVKPEPRKNRPPIAIVSPQFQEISLPTTSTVIDGSQSTDDDKIVQYHWEELKGPLREEKISEDTAILKLSKLVPGNYTFSLTVVDSDGATNSTTANLTVNKAVDHHHHHH | 84.6
AAV-binding protein No. 14 (Gln365Arg) (receptor) MGSAGESVQITLPKNEVQLNAYVLQEPPKGETYTYDWQLITHPRDYSGEMEGKHSRILKLSKLTPGLYEFKVIVEGQNAHGEGYVNVTVKPEPRKNRPPIAIVSPQFQEISLPTTSTVIDGSQSTDDDKIVQYHWEELKGPLREEKISEDTAILKLSKLVPGNYTFSLTVVDSDGATNSTTANLTVNKAVDHHHHHH | 57.7
AAV-binding protein No. 7 (Leu348Pro) (receptor) MGSAGESVQITLPKNEVQLNAYVLQEPPKGETYTYDWQPITHPRDYSGEMEGKHSQILKLSKLTPGLYEFKVIVEGQNAHGEGYVNVTVKPEPRKNRPPIAIVSPQFQEISLPTTSTVIDGSQSTDDDKIVQYHWEELKGPLREEKISEDTAILKLSKLVPGNYTFSLTVVDSDGATNSTTANLTVNKAVDHHHHHH | 69.6
AAV-binding protein No. 18 (Tyr393Cys) (receptor) MGSAGESVQITLPKNEVQLNAYVLQEPPKGETYTYDWQLITHPRDYSGEMEGKHSQILKLSKLTPGLYEFKVIVEGQNAHGEGCVNVTVKPEPRKNRPPIAIVSPQFQEISLPTTSTVIDGSQSTDDDKIVQYHWEELKGPLREEKISEDTAILKLSKLVPGNYTFSLTVVDSDGATNSTTANLTVNKAVDHHHHHH | 86.4
AAV-binding protein No. 5 (Asp345Asn) (receptor) MGSAGESVQITLPKNEVQLNAYVLQEPPKGETYTYNWQLITHPRDYSGEMEGKHSQILKLSKLTPGLYEFKVIVEGQNAHGEGYVNVTVKPEPRKNRPPIAIVSPQFQEISLPTTSTVIDGSQSTDDDKIVQYHWEELKGPLREEKISEDTAILKLSKLVPGNYTFSLTVVDSDGATNSTTANLTVNKAVDHHHHHH | 71.4
AAV-binding protein No. 2 (Tyr331Cys) (receptor) MGSAGESVQITLPKNEVQLNACVLQEPPKGETYTYDWQLITHPRDYSGEMEGKHSQILKLSKLTPGLYEFKVIVEGQNAHGEGYVNVTVKPEPRKNRPPIAIVSPQFQEISLPTTSTVIDGSQSTDDDKIVQYHWEELKGPLREEKISEDTAILKLSKLVPGNYTFSLTVVDSDGATNSTTANLTVNKAVDHHHHHH | 73.4
AAV-binding protein No. 11 (Tyr355Asn) (receptor) MGSAGESVQITLPKNEVQLNAYVLQEPPKGETYTYDWQLITHPRDNSGEMEGKHSQILKLSKLTPGLYEFKVIVEGQNAHGEGYVNVTVKPEPRKNRPPIAIVSPQFQEISLPTTSTVIDGSQSTDDDKIVQYHWEELKGPLREEKISEDTAILKLSKLVPGNYTFSLTVVDSDGATNSTTANLTVNKAVDHHHHHH | 80.6
AAV-binding protein No. 6 (Trp346Leu) (receptor) MGSAGESVQITLPKNEVQLNAYVLQEPPKGETYTYDLQLITHPRDYSGEMEGKHSQILKLSKLTPGLYEFKVIVEGQNAHGEGYVNVTVKPEPRKNRPPIAIVSPQFQEISLPTTSTVIDGSQSTDDDKIVQYHWEELKGPLREEKISEDTAILKLSKLVPGNYTFSLTVVDSDGATNSTTANLTVNKAVDHHHHHH | 85.7
AAV-binding protein No. 3 (Lys338Glu) (receptor) MGSAGESVQITLPKNEVQLNAYVLQEPPEGETYTYDWQLITHPRDYSGEMEGKHSQILKLSKLTPGLYEFKVIVEGQNAHGEGYVNVTVKPEPRKNRPPIAIVSPQFQEISLPTTSTVIDGSQSTDDDKIVQYHWEELKGPLREEKISEDTAILKLSKLVPGNYTFSLTVVDSDGATNSTTANLTVNKAVDHHHHHH | 52.6
AAV-binding protein No. 8 (His351Leu) (receptor) MGSAGESVQITLPKNEVQLNAYVLQEPPKGETYTYDWQLITLPRDYSGEMEGKHSQILKLSKLTPGLYEFKVIVEGQNAHGEGYVNVTVKPEPRKNRPPIAIVSPQFQEISLPTTSTVIDGSQSTDDDKIVQYHWEELKGPLREEKISEDTAILKLSKLVPGNYTFSLTVVDSDGATNSTTANLTVNKAVDHHHHHH | 68.7
AAV-binding protein No. 15 (Leu367Pro) (receptor) MGSAGESVQITLPKNEVQLNAYVLQEPPKGETYTYDWQLITHPRDYSGEMEGKHSQIPKLSKLTPGLYEFKVIVEGQNAHGEGYVNVTVKPEPRKNRPPIAIVSPQFQEISLPTTSTVIDGSQSTDDDKIVQYHWEELKGPLREEKISEDTAILKLSKLVPGNYTFSLTVVDSDGATNSTTANLTVNKAVDHHHHHH | 56.9

From patent US20220402995A1 (TOSOH, published 2022)
